Where a chain is given by its changes, count along the chain named.
B1: humanized antibody hIGF13_PS (antibody, V domains shown)
VH: QVQLVQSGAEVKKPGASVKVSCKAPGYTFTSYWMHWVRQAPGQGLEWMGETNPSSSVTNYAQKFQGRVTLTVDTSTSTAYMELSSLRSEDTATYYCTIGRGRGFAYWGQGTLVTVSS
VL: DIQMTQSPSSLSASVGDRVTITCRASQNINFWLSWYQQKPGKVPKLLIYKASNLHTGVPSRFSGSGSGTDFTLTISSLQPEDVATYYCLQGQSYPYTFGGGTKLEIK
B2: humanized antibody hIGF25_PS (antibody, V domains shown)
VH: B1 VH with T93V
VL: B1 VL
B3: IGF11-16 with alanine substitution of W at position 32 (CDR-L1) (antibody, V domains shown)
VH: QIQLQQPGAELVKPGASVKLSCKAPGYTFTSYWMHWVKQRPGQGLEWIGETNPSNSVTNYNEKFKSKATLTVDKSSSTAYMQLSSLTSEDSAVYYCTIGRGRGFAYWGQGTLVTVSA
VL: B1 VL with T5N, V15L, R18T, V19I, W32A, Y36C, K42N, V43I, V83I
B4: IGF11-16 with alanine substitution of F at position 64 (CDR-H2) (antibody, mouse IgG1, V domains shown)
VH: B3 VH with F64A
VL: B1 VL with T5N, V15L, R18T, V19I, Y36C, K42N, V43I, V83I
B5: IGF11-16 with alanine substitution of R at position 102 (CDR-H3) (antibody, mouse IgG1, V domains shown)
VH: B3 VH with R102A
VL: B1 VL with T5N, V15L, R18T, V19I, Y36C, K42N, V43I, V83I
B6: IGF11-16 with alanine substitution of W at position 33 (CDR-H1) (antibody, mouse IgG1, V domains shown)
VH: B3 VH with W33A
VL: B1 VL with T5N, V15L, R18T, V19I, Y36C, K42N, V43I, V83I
B7: IGF11-16 with alanine substitution of H at position 35 (CDR-H1) (antibody, mouse IgG1, V domains shown)
VH: B3 VH with H35A
VL: B1 VL with T5N, V15L, R18T, V19I, Y36C, K42N, V43I, V83I
B8: IGF11-16 with alanine substitution of E at position 50 (CDR-H2) (antibody, mouse IgG1, V domains shown)
VH: B3 VH with E50A
VL: B1 VL with T5N, V15L, R18T, V19I, Y36C, K42N, V43I, V83I
B9: IGF11-16 with alanine substitution of N at position 52 (CDR-H2) (antibody, mouse IgG1, V domains shown)
VH: B3 VH with N52A
VL: B1 VL with T5N, V15L, R18T, V19I, Y36C, K42N, V43I, V83I
B10: IGF11-16 with alanine substitution of S at position 54 (CDR-H2) (antibody, mouse IgG1, V domains shown)
VH: B3 VH with S54A
VL: B1 VL with T5N, V15L, R18T, V19I, Y36C, K42N, V43I, V83I
B11: IGF11-16 with alanine substitution of N at position 55 (CDR-H2) (antibody, mouse IgG1, V domains shown)
VH: B3 VH with N55A
VL: B1 VL with T5N, V15L, R18T, V19I, Y36C, K42N, V43I, V83I
B12: IGF11-16 with alanine substitution of S at position 56 (CDR-H2) (antibody, mouse IgG1, V domains shown)
VH: B3 VH with S56A
VL: B1 VL with T5N, V15L, R18T, V19I, Y36C, K42N, V43I, V83I
B13: IGF11-16 with alanine substitution of N at position 59 (CDR-H2) (antibody, mouse IgG1, V domains shown)
VH: B3 VH with N59A
VL: B1 VL with T5N, V15L, R18T, V19I, Y36C, K42N, V43I, V83I
B14: mouse parent antibody IGF11-16 (antibody, mouse IgG1, kappa, V domains shown)
VH: B3 VH
VL: DIQMNQSPSSLSASLGDTITITCRASQNINFWLSWCQQKPGNIPKLLIYKASNLHTGVPSRFSGSGSGTDFTLTISSLQPEDIATYYCLQGQSYPYTFGGGTKLEIKR

target: recombinant human IGF-1 receptor histidine tag (305-GR-050, R&D SYSTEMS) (human) (UniProt P08069); test: SPR, Biacore T200, summary sentence of Table 16

B1 and B2 cannot be ordered by Kd: under 100 pM for the first, under 100 pM for the second.

target: recombinant human IGF-1 receptor histidine tag (305-GR-050, R&D SYSTEMS) (human) (UniProt P08069); test: antigen ELISA, plate-coated human recombinant IGF-1R, antibody at 5 nM, relative to IGF11-16

B3 gave a Binding @5 nM vs IGF11-16 (% vs IGF11-16) of 14.

Compared with B4, B5 is lower in Binding vs IGF11-16 (EC50) (% vs IGF11-16): 84 for the first, 9 for the second.

First: B6
Second: B7
The Binding vs IGF11-16 (EC50) (% vs IGF11-16) of the first is lower: 9 for the first, 49 for the second.

First: B8
Second: B9
The Binding vs IGF11-16 (EC50) (% vs IGF11-16) of the first is lower: 9 for the first, 21 for the second.

Going from B10 to B11, the Binding vs IGF11-16 (EC50) (% vs IGF11-16) falls from 97 to 94.

Compared with B12, B13 is higher in Binding vs IGF11-16 (EC50) (% vs IGF11-16): 108 for the first, 112 for the second.

target: recombinant human IGF-1 receptor histidine tag (305-GR-050, R&D SYSTEMS) (human) (UniProt P08069); test: SPR, Biacore T200, 40 C, IGF-1R-His captured by anti-histidine-tag antibody, antibody as analyte, single cycle kinetics, 1:1 Binding model

Going from B14 to B1, the Kd rises from 31.4 pM to 57.8 pM (1.8-fold).

With B2 the Kd was 51 pM.

Compared with B14, B1 is 2-fold higher in koff: 7.72e-05 s⁻¹ for the first, 0.000158 s⁻¹ for the second.

With B2 the koff was 0.000135 s⁻¹.

B14 and B1 are within 1.5-fold of each other in kon: 2.67e+06 M⁻¹ s⁻¹ for the first, 2.85e+06 M⁻¹ s⁻¹ for the second.

B2 was tested, and the kon was 2.87e+06 M⁻¹ s⁻¹.

— patent US20250263489A1
